Source: US20200131230A1 (published 2020)
Positions of bridges follow the written chain, without caps; N, C: chain ends. Non-standard residues stand in square brackets, D forms with d. 2Nal = N[C@@H](Cc1ccc2ccccc2c1)C(=O)O; Nle = CCCC[C@H](N)C(=O)O; 4CF = not defined here; DCF = not defined here; HF = not defined here

target: T1, Thrombospondin human platelet (Calbiochem, 605225) (human, UniProt P07996 19-1170); assay: cell-based or functional assay
T1 sequence (P07996 19-1170 limits assumed): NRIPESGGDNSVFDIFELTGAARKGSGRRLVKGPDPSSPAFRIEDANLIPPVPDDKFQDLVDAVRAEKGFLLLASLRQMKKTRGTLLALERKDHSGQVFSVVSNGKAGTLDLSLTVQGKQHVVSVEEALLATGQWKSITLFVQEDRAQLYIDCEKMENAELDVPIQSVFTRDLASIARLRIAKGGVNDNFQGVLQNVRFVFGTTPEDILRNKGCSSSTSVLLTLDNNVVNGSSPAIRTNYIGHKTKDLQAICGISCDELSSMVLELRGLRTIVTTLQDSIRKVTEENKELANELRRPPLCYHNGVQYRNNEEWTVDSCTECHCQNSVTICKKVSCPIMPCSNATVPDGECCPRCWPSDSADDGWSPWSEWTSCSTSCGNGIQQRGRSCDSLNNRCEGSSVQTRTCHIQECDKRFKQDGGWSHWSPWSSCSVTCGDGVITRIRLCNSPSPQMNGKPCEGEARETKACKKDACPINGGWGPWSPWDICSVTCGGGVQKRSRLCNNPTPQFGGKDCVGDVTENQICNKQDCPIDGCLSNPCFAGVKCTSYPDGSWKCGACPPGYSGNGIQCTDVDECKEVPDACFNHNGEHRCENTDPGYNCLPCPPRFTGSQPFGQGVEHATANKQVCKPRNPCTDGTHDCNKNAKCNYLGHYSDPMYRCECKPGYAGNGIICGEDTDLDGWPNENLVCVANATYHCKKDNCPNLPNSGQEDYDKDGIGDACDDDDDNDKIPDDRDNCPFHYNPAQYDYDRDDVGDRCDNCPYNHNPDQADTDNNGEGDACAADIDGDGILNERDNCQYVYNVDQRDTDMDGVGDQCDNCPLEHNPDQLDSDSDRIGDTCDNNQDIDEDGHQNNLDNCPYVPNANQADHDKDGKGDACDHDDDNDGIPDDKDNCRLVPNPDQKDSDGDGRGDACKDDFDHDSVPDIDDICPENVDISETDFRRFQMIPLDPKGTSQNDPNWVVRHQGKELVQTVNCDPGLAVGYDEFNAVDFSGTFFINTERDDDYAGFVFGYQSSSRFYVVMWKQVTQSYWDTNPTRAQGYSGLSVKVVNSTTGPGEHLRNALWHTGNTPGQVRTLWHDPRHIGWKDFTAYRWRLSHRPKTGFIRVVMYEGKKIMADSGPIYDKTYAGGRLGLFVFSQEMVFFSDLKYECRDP

Cell adhesion IC50 | Binder
16.3 nM | {CH2CO}-[2Nal]ISGRNW[Nle]KWFC-NH2 (thioether N-12; SMILES CCCC[C@@H]1NC(=O)[C@H](Cc2c[nH]c3ccccc23)NC(=O)[C@H](CC(N)=O)NC(=O)[C@H](CCCNC(=N)N)NC(=O)CNC(=O)[C@H](CO)NC(=O)[C@H]([C@@H](C)CC)NC(=O)[C@H](Cc2ccc3ccccc3c2)NC(=O)CSC[C@@H](C(N)=O)NC(=O)[C@H](Cc2ccccc2)NC(=O)[C@H](Cc2c[nH]c3ccccc23)NC(=O)[C@H](CCCCN)NC1=O) [Compound 39]
17.6 nM | {CH2CO}-[2Nal]ISGRNWVK[2Nal]VC-NH2 (thioether N-12; SMILES CC[C@H](C)[C@@H]1NC(=O)[C@H](Cc2ccc3ccccc3c2)NC(=O)CSC[C@@H](C(N)=O)NC(=O)[C@H](C(C)C)NC(=O)[C@H](Cc2ccc3ccccc3c2)NC(=O)[C@H](CCCCN)NC(=O)[C@H](C(C)C)NC(=O)[C@H](Cc2c[nH]c3ccccc23)NC(=O)[C@H](CC(N)=O)NC(=O)[C@H](CCCNC(=N)N)NC(=O)CNC(=O)[C@H](CO)NC1=O) [Compound 29]
26 nM | {CH2CO}-[2Nal]ISGRN[6CW]VKWVC-NH2 (thioether N-12) [Compound 35]
9.2 nM | {CH2CO}-[2Nal]ISGRNW[Nle]KWVC-NH2 (thioether N-12; SMILES CCCC[C@@H]1NC(=O)[C@H](Cc2c[nH]c3ccccc23)NC(=O)[C@H](CC(N)=O)NC(=O)[C@H](CCCNC(=N)N)NC(=O)CNC(=O)[C@H](CO)NC(=O)[C@H]([C@@H](C)CC)NC(=O)[C@H](Cc2ccc3ccccc3c2)NC(=O)CSC[C@@H](C(N)=O)NC(=O)[C@H](C(C)C)NC(=O)[C@H](Cc2c[nH]c3ccccc23)NC(=O)[C@H](CCCCN)NC1=O) [Compound 38]
28.1 nM | {CH2CO}-[DCF][2Nal]SGRNWVKWVC-NH2 (thioether N-12; reading uncertain) [Compound 34]
25.9 nM | {CH2CO}-[2Nal][HF]SGRNWVKWVC-NH2 (thioether N-12; reading uncertain) [Compound 32]
20.7 nM | {CH2CO}-[2Nal]WSGRNWVKWVC-NH2 (thioether N-12; SMILES CC(C)[C@@H]1NC(=O)[C@H](Cc2c[nH]c3ccccc23)NC(=O)[C@H](CCCCN)NC(=O)[C@H](C(C)C)NC(=O)[C@H](Cc2c[nH]c3ccccc23)NC(=O)[C@H](CC(N)=O)NC(=O)[C@H](CCCNC(=N)N)NC(=O)CNC(=O)[C@H](CO)NC(=O)[C@H](Cc2c[nH]c3ccccc23)NC(=O)[C@H](Cc2ccc3ccccc3c2)NC(=O)CSC[C@@H](C(N)=O)NC1=O) [Compound 33]
19.6 nM | {CH2CO}-[2Nal]ISGRNWVKW[HF]C-NH2 (thioether N-12; reading uncertain) [Compound 37]
32.5 nM | {CH2CO}-[2Nal][4CF]SGRNWVKWVC-NH2 (thioether N-12; reading uncertain) [Compound 31]
32.8 nM | {CH2CO}-[2Nal]FSGRNWVKWVC-NH2 (thioether N-12; SMILES CC(C)[C@@H]1NC(=O)[C@H](Cc2c[nH]c3ccccc23)NC(=O)[C@H](CCCCN)NC(=O)[C@H](C(C)C)NC(=O)[C@H](Cc2c[nH]c3ccccc23)NC(=O)[C@H](CC(N)=O)NC(=O)[C@H](CCCNC(=N)N)NC(=O)CNC(=O)[C@H](CO)NC(=O)[C@H](Cc2ccccc2)NC(=O)[C@H](Cc2ccc3ccccc3c2)NC(=O)CSC[C@@H](C(N)=O)NC1=O) [Compound 27]
7 nM | {CH2CO}-FISGRNW[Nle]KWVC-NH2 (thioether N-12; SMILES CCCC[C@@H]1NC(=O)[C@H](Cc2c[nH]c3ccccc23)NC(=O)[C@H](CC(N)=O)NC(=O)[C@H](CCCNC(=N)N)NC(=O)CNC(=O)[C@H](CO)NC(=O)[C@H]([C@@H](C)CC)NC(=O)[C@H](Cc2ccccc2)NC(=O)CSC[C@@H](C(N)=O)NC(=O)[C@H](C(C)C)NC(=O)[C@H](Cc2c[nH]c3ccccc23)NC(=O)[C@H](CCCCN)NC1=O) [Compound 26]
17.2 nM | {CH2CO}-[2Nal]ISGRNWVK[6CW]VC-NH2 (thioether N-12) [Compound 36]

target: T1, Thrombospondin human platelet …; assay: cell-based or functional assay; remark: another data set of the same source

Cell adhesion IC50 | Binder
33.4 nM | {CH2CO}-FRSGRNWVRWVC-NH2 (thioether N-12; SMILES CC(C)[C@@H]1NC(=O)[C@H](Cc2c[nH]c3ccccc23)NC(=O)[C@H](CCCNC(=N)N)NC(=O)[C@H](C(C)C)NC(=O)[C@H](Cc2c[nH]c3ccccc23)NC(=O)[C@H](CC(N)=O)NC(=O)[C@H](CCCNC(=N)N)NC(=O)CNC(=O)[C@H](CO)NC(=O)[C@H](CCCNC(=N)N)NC(=O)[C@H](Cc2ccccc2)NC(=O)CSC[C@@H](C(N)=O)NC1=O) [Compound 8]
14.1 nM | {CH2CO}-FISGKNWMKWVC-NH2 (thioether N-12; SMILES CC[C@H](C)[C@@H]1NC(=O)[C@H](Cc2ccccc2)NC(=O)CSC[C@@H](C(N)=O)NC(=O)[C@H](C(C)C)NC(=O)[C@H](Cc2c[nH]c3ccccc23)NC(=O)[C@H](CCCCN)NC(=O)[C@H](CCSC)NC(=O)[C@H](Cc2c[nH]c3ccccc23)NC(=O)[C@H](CC(N)=O)NC(=O)[C@H](CCCCN)NC(=O)CNC(=O)[C@H](CO)NC1=O) [Compound 19]
7.9 nM | {CH2CO}-[4CF]ISGRNWVKWVC-NH2 (thioether N-12; reading uncertain) [Compound 25]
13.1 nM | {CH2CO}-WISGKTWVKWVC-NH2 (thioether N-12; SMILES CC[C@H](C)[C@@H]1NC(=O)[C@H](Cc2c[nH]c3ccccc23)NC(=O)CSC[C@@H](C(N)=O)NC(=O)[C@H](C(C)C)NC(=O)[C@H](Cc2c[nH]c3ccccc23)NC(=O)[C@H](CCCCN)NC(=O)[C@H](C(C)C)NC(=O)[C@H](Cc2c[nH]c3ccccc23)NC(=O)[C@H]([C@@H](C)O)NC(=O)[C@H](CCCCN)NC(=O)CNC(=O)[C@H](CO)NC1=O) [Compound 20]
13 nM | {CH2CO}-FISGKTWVKWVC-NH2 (thioether N-12; SMILES CC[C@H](C)[C@@H]1NC(=O)[C@H](Cc2ccccc2)NC(=O)CSC[C@@H](C(N)=O)NC(=O)[C@H](C(C)C)NC(=O)[C@H](Cc2c[nH]c3ccccc23)NC(=O)[C@H](CCCCN)NC(=O)[C@H](C(C)C)NC(=O)[C@H](Cc2c[nH]c3ccccc23)NC(=O)[C@H]([C@@H](C)O)NC(=O)[C@H](CCCCN)NC(=O)CNC(=O)[C@H](CO)NC1=O) [Compound 18]
21 nM | {CH2CO}-WISGKNWVKWVC-NH2 (thioether N-12; SMILES CC[C@H](C)[C@@H]1NC(=O)[C@H](Cc2c[nH]c3ccccc23)NC(=O)CSC[C@@H](C(N)=O)NC(=O)[C@H](C(C)C)NC(=O)[C@H](Cc2c[nH]c3ccccc23)NC(=O)[C@H](CCCCN)NC(=O)[C@H](C(C)C)NC(=O)[C@H](Cc2c[nH]c3ccccc23)NC(=O)[C@H](CC(N)=O)NC(=O)[C@H](CCCCN)NC(=O)CNC(=O)[C@H](CO)NC1=O) [Compound 16]
20.3 nM | {CH2CO}-WISGKTWVRWVC-NH2 (thioether N-12; SMILES CC[C@H](C)[C@@H]1NC(=O)[C@H](Cc2c[nH]c3ccccc23)NC(=O)CSC[C@@H](C(N)=O)NC(=O)[C@H](C(C)C)NC(=O)[C@H](Cc2c[nH]c3ccccc23)NC(=O)[C@H](CCCNC(=N)N)NC(=O)[C@H](C(C)C)NC(=O)[C@H](Cc2c[nH]c3ccccc23)NC(=O)[C@H]([C@@H](C)O)NC(=O)[C@H](CCCCN)NC(=O)CNC(=O)[C@H](CO)NC1=O) [Compound 22]
17.7 nM | {CH2CO}-FITGKNWVKWVC-NH2 (thioether N-12; SMILES CC[C@H](C)[C@@H]1NC(=O)[C@H](Cc2ccccc2)NC(=O)CSC[C@@H](C(N)=O)NC(=O)[C@H](C(C)C)NC(=O)[C@H](Cc2c[nH]c3ccccc23)NC(=O)[C@H](CCCCN)NC(=O)[C@H](C(C)C)NC(=O)[C@H](Cc2c[nH]c3ccccc23)NC(=O)[C@H](CC(N)=O)NC(=O)[C@H](CCCCN)NC(=O)CNC(=O)[C@H]([C@@H](C)O)NC1=O) [Compound 17]
15.6 nM | {CH2CO}-WISGRTWVKWVC-NH2 (thioether N-12; SMILES CC[C@H](C)[C@@H]1NC(=O)[C@H](Cc2c[nH]c3ccccc23)NC(=O)CSC[C@@H](C(N)=O)NC(=O)[C@H](C(C)C)NC(=O)[C@H](Cc2c[nH]c3ccccc23)NC(=O)[C@H](CCCCN)NC(=O)[C@H](C(C)C)NC(=O)[C@H](Cc2c[nH]c3ccccc23)NC(=O)[C@H]([C@@H](C)O)NC(=O)[C@H](CCCNC(=N)N)NC(=O)CNC(=O)[C@H](CO)NC1=O) [Compound 23]
21.3 nM | {CH2CO}-FISGKNWMRWVC-NH2 (thioether N-12; SMILES CC[C@H](C)[C@@H]1NC(=O)[C@H](Cc2ccccc2)NC(=O)CSC[C@@H](C(N)=O)NC(=O)[C@H](C(C)C)NC(=O)[C@H](Cc2c[nH]c3ccccc23)NC(=O)[C@H](CCCNC(=N)N)NC(=O)[C@H](CCSC)NC(=O)[C@H](Cc2c[nH]c3ccccc23)NC(=O)[C@H](CC(N)=O)NC(=O)[C@H](CCCCN)NC(=O)CNC(=O)[C@H](CO)NC1=O) [Compound 21]
